Test results from patent publication US20180311371A1 (Hoffmann-La Roche, published 2018).

What was measured:
[1] = biological target: T1, human TPBG (trophoblast glycoprotein), full length, cell surface expressed (human, UniProt Q13641 32-420); assay: cell-based or functional assay
T1 sequence: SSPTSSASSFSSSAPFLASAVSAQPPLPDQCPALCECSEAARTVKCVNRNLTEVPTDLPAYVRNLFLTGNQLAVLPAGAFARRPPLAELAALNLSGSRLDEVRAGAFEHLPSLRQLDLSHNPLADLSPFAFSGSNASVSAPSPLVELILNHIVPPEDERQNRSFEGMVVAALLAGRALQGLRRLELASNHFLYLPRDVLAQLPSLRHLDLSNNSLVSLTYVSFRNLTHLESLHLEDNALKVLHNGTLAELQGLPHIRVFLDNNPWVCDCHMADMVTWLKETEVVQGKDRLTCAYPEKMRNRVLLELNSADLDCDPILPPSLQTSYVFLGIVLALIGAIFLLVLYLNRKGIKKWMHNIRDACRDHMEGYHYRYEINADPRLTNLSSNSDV

[2] = biological target: T1, human TPBG (trophoblast glycoprotein), …; assay: cell-based or functional assay; remark: listed apart in the source
[3] = biological target: T2, minipig TPBG, full length, cell surface expressed on CHO-K1 cells (minipig); assay: cell-based or functional assay
T2 chain: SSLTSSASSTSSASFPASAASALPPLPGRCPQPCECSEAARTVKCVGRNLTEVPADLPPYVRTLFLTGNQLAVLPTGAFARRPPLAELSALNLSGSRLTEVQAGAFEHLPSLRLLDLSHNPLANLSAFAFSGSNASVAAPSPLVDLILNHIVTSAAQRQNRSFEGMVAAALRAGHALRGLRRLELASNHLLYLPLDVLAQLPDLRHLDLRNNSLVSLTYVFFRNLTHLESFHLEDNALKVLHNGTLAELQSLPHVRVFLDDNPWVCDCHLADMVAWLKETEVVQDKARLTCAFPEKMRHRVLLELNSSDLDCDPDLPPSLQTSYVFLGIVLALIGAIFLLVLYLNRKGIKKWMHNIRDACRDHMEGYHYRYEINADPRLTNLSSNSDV

[4] = biological target: T1, human TPBG (trophoblast glycoprotein), …; assay: cell-based or functional assay; remark: listed apart in the source
[5] = biological target: T1, human TPBG (trophoblast glycoprotein), …; assay: cell-based or functional assay; remark: listed apart in the source
[6] = biological target: T1, human TPBG (trophoblast glycoprotein), …; assay: cell ELISA on MCF7 cells; titrated from 5 µg/ml
[7] = biological target: T3, huTPBG (recombinant human TPBG immobilised on the Biacore chip) (human, UniProt Q13641 32-355, limits assumed); assay: SPR Biacore T200; huTPBG amine-coupled, Fab injected
T3 construct: also called human TPBG antigen
T3 sequence: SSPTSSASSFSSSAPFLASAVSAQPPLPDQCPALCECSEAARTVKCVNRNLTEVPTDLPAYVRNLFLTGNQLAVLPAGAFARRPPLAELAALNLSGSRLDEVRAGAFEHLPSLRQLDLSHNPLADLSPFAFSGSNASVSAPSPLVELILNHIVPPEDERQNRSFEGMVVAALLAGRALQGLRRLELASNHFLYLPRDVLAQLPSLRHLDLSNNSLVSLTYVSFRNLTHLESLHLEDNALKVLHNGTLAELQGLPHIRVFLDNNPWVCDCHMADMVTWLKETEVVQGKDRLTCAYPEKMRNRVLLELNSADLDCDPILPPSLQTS

[8] = biological target: T1, human TPBG (trophoblast glycoprotein), …; assay: flow cytometry on SW620 clone 4 cells; ratio of MFI; replicate 1
[9] = biological target: T1, human TPBG (trophoblast glycoprotein), …; assay: flow cytometry on SW620 clone 4 cells; ratio of MFI; replicate 2
[10] = biological target: T4, recombinant extracellular domain of minipig TPBG (Biacore analyte) (minipig); assay: SPR Biacore T200; Fab captured by anti-huFab, minipig TPBG injected
T4 chain: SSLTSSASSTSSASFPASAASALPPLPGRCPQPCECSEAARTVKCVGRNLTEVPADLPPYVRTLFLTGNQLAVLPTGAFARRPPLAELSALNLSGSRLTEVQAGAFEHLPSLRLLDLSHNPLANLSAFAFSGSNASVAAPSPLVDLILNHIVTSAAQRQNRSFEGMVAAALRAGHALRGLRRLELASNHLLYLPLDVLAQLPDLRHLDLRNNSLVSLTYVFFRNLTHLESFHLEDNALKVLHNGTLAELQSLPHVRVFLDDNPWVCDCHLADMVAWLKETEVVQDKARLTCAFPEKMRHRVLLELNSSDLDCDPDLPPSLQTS

[11] = biological target: T5, human TPBG extracellular domain, His6Avi, biotinylated (human, biotinylated); assay: ELISA; biotinylated TPBG-AviHis on streptavidin plate; Fab titrated from 2 µg/ml
T5 construct: also called huTPBG; human TPBG-AviHis
T5 chain: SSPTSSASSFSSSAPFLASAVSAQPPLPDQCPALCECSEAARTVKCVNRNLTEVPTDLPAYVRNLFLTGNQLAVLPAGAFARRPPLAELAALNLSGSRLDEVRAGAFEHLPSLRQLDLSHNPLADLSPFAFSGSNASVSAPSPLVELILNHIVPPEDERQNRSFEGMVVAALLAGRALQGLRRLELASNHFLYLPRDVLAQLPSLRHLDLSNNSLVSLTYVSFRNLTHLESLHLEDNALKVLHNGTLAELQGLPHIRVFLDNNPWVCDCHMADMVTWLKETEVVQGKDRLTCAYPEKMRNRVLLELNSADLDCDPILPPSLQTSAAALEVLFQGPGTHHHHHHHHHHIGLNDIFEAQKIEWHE

[12] = biological target: T6, minipig TPBG extracellular domain, His6Avi, biotinylated (minipig, biotinylated); assay: as above
T6 construct: also called mpTPBG; minipig TPBG-AviHis
T6 chain: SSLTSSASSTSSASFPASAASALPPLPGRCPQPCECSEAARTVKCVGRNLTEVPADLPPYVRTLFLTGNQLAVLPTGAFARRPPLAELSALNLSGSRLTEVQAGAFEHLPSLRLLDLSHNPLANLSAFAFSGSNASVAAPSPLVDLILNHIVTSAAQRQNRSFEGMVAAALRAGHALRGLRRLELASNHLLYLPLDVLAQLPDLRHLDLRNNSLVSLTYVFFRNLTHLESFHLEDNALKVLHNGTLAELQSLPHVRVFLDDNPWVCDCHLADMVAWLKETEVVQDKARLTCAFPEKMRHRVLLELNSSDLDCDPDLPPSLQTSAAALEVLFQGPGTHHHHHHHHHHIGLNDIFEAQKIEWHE

[13] = biological target: T7, minipig TPBG extracellular domain, huIgG1-Fc-His (minipig); assay: ELISA; Fc-TPBG coated; mAb titrated from 1 µg/ml
T7 construct: also called Fc-TPBG (mp)

[14] = biological target: T8, human TPBG extracellular domain, huIgG1-Fc-His6 (human); assay: ELISA; Fc-TPBG coated; mAb titrated from 1 µg/ml
T8 construct: also called Fc-TPBG (hu)

B1: anti-TPBG antibody 051, Fab fragment (Fab, V domains shown)
VH: EVQLLESGGGLLQPGGSLRLSCAASGFTFSIYWMTWVRQAPGKGLEWVSAISGSGGSTYYADSVKGRFTISRDNSKNTLYLQMNSLRAEDTAVYYCAKDYYSNVYWGQGTLVTVSS
VL: DIQMTQSPSSVSASVGDRVTITCRASQGIYSWLAWYQQKPGKAPKLLIYAASSLQSGVPSRFSGSGSGTDFTLTISSLQPEDFATYYCQQSDSPPYTFGQGTKLEIK
notes: also called Fab3
[1]
  internalization after 0.5 h, MCF7 cells: 31%
  internalization after 1.0 h, MCF7 cells: 55%
  internalization after 2.0 h, MCF7 cells: 72%
[2]
  EC50 cytotoxicity, Fab + anti-kappa-Fab-PE, CHO-K1/human TPBG, replicate 1: 0.28 nM
  EC50 cytotoxicity, Fab + anti-kappa-Fab-PE, CHO-K1/human TPBG, replicate 2: 0.38 nM
[3]
  EC50 cytotoxicity, Fab + anti-kappa-Fab-PE, CHO-K1/minipig TPBG, replicate 1: 6.18 nM
  EC50 cytotoxicity, Fab + anti-kappa-Fab-PE, CHO-K1/minipig TPBG, replicate 2: 5.04 nM
[4]
  EC50 cytotoxicity, Fab-PE sandwich construct, MCF7: 1.35 nM
  X-fold higher potency compared to TPBG(H8)PE, MCF7: 1.1 fold
[5]
  EC50 cytotoxicity, Fab-PE sandwich construct, H1975, replicate 1: 0.522 nM
  EC50 cytotoxicity, Fab-PE sandwich construct, H1975, replicate 2: 0.397 nM
  EC50 cytotoxicity, Fab-PE sandwich construct, H1975, replicate 3: 0.527 nM
[6]
  EC50: 0.0575 µg/mL
[7]
  Kd: 0.16 nM
  koff: 7.83e-05 s⁻¹
  kon: 489000 M⁻¹ s⁻¹
[8]
  Fold change pH 7.2 vs pH 5.5: 1.1 fold
[9]
  Fold change pH 7.2 vs pH 5.5: 1.1 fold
[10]
  Kd: 2.05 nM
  koff: 0.000193 s⁻¹
  kon: 94000 M⁻¹ s⁻¹
[11]
  EC50: 0.0181 µg/mL
[12]
  EC50: 0.175 µg/mL

B2: anti-TPBG antibody 051 (mAb) (antibody, V domains shown)
VH: EVQLLESGGGLLQPGGSLRLSCAASGFTFSIYWMTWVRQAPGKGLEWVSAISGSGGSTYYADSVKGRFTISRDNSKNTLYLQMNSLRAEDTAVYYCAKDYYSNVYWGQGTLVTVSS
VL: DIQMTQSPSSVSASVGDRVTITCRASQGIYSWLAWYQQKPGKAPKLLIYAASSLQSGVPSRFSGSGSGTDFTLTISSLQPEDFATYYCQQSDSPPYTFGQGTKLEIK
[13]
  binding result: binds
[14]
  binding result: binds
